Results reported in patent publication US20230174571A1, “METHOD OF TREATING SHIP1-MEDIATED DISEASES USING PELOROL DERIVATIVES” (Zebrapeutics Inc., priority 2020, published 2023).

Key:
[1] = biological target: T1, Clover-SHIP1 and mRuby2-STAT3 (Mus musculus, UniProt Q9ES52); experiment: Acceptor photobleaching FRET analysis; assay type: cell-based; conditions: J17 SHIP1−/− cells expressing Clover-SHIP1/mRuby2-STAT3; 1 minute; 100 ng/ml IL10, IL6 or 20 μM I-2
T1 construct: expressed in transfected cells; host or cells: J17 (SHIP1-/- mouse macrophage line), lentiviral transduction
Protocol: Acceptor Photobleaching FRET analysis. J17 cells expressing Clover-SHIP1 and/or mRuby2-STAT3 were seeded at 50×10^4 cells per well in 8-well Ibidi p-Slides (Ibidi GmbH, Martinsried, Germany). After overnight incubation, cells were serum-starved with Mac media containing 1% serum for 3 hours before media replacement with Leibovitz's (L-15) media (Invitrogen, Burlington, ON) supplemented with 1% serum, 10 μM β-mercaptoethanol, 150 μM monothioglycolate and 1 mM L-glutamine for confocal microscopy imaging. Cells were imaged on a Leica SP8X on DMi8 confocal microscope system with a 63×/1.3 Gly HC PL APO CS2 objective using a white light laser line with 488 nm for donor excitement and 555 nm for acceptor excitement. Photobleaching FRET analysis was performed by measuring Clover-SHIP1 donor fluorescence intensity before and after bleaching the acceptor, mRuby2-STAT3, within a field of cells ‘region of interest’ (ROI), at 100% laser intensity for 60 frames. Acceptor photobleaching was performed first in resting cells then at 1 minute (±5 seconds) following ‘mock’ stimulation with L-15 media, or L-15 media containing 100 ng/ml IL10, IL6 or 20 μM compound I-2. Donor and acceptor fluorescence intensity of individual cells within the bleached ROI was quantified before and after bleaching. Percentage FRET efficiency was calculated as % FRETeff=100×(Dpost−Dpre)/Dpost where Dpre and Dpost represent Clover-SHIP1 donor fluorescence intensity before and after bleaching, respectively.

[2] = biological target: T2, SHIP1 and STAT3 (Mus musculus, UniProt Q9ES52); experiment: In vitro pull down assay of His6-SHIP1 with STAT3; assay type: cell-based; conditions: J17 His6-SHIP1 cells; 100 ng/ml IL10 or IL6, 20 μM compound I-2; 5 minutes
T2 construct: expressed in transfected cells; host or cells: J17 (SHIP1-/- mouse BMDM-derived line), lentiviral transduction
T2 sequence (Q9ES52 1-1191): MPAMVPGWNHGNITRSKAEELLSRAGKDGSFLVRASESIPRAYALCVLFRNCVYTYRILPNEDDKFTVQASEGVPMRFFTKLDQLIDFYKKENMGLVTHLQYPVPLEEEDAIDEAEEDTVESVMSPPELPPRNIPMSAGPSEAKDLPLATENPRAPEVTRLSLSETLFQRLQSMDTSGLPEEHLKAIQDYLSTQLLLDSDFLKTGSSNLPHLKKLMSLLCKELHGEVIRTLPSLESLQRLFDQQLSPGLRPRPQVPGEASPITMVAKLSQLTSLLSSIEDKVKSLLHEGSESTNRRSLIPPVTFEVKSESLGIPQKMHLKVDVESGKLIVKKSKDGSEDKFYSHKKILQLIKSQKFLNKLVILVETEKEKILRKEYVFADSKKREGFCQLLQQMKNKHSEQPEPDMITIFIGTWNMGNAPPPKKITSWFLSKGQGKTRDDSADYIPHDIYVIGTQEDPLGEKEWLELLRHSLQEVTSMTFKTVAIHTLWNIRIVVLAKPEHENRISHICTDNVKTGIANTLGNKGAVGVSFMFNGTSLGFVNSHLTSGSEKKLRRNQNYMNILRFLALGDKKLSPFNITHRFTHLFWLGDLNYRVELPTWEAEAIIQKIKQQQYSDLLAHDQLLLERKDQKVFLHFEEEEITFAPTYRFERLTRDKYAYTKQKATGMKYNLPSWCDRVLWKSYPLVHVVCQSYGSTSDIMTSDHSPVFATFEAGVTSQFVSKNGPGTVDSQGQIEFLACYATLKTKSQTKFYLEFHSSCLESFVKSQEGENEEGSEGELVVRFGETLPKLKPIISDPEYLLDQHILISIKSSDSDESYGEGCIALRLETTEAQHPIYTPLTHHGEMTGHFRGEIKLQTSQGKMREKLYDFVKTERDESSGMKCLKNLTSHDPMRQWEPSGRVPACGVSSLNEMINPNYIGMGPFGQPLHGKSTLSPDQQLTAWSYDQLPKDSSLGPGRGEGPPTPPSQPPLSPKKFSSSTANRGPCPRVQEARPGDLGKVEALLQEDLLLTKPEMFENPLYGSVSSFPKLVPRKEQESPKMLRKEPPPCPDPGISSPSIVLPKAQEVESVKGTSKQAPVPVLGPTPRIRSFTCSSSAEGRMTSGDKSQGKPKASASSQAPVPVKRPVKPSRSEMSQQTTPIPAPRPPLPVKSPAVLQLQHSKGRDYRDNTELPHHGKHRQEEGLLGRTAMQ
Protocol: In vitro pull down assay. J17 His6-SHIP1 and Y190F cells were seeded at 2×10^6 cells per well in a 6-well plate. After overnight incubation, fresh cell media was added for 30 minutes before stimulation with 100 ng/ml IL10, […] or 20 μM compound I-2 for 5 minutes. Cells were lysed with Protein Solubilization Buffer (PSB, 50 mM Hepes, pH 7.5, […], 10 mM Na Pyrophosphate, 2 mM NaVO4, 2 mM Na Molybdate, 2 mM EDTA) containing 1% octylglucoside, 0.01 M imidazole, and protease inhibitor cocktail (Roche Diagnostics, Laval, QC) for 30 minutes at 4° C. and centrifuged at 10000 rpm for 15 minutes. EDTA resistant Ni beads (Roche Diagnostics, Laval, QC) were added to supernatants and the mixture incubated at 4° C. for 1 hour before spinning down and washing of beads three times with 0.1% octylglucoside wash buffer in PSB. Bead samples and starting material cell lysates were separated on a 7.5% SDS-PAGE gel.
Immunoblotting. Protein lysates were separated on SDS-PAGE gels and transferred onto polyvinylidene fluoride (PVDF) membrane (Millipore, Etobicoke, ON). Membranes were blocked and probed, where appropriate, with the following primary antibodies overnight: SHIP1 (P1C1) (Santa Cruz Biotechnology), pSHIP1 (Y190) (Kinexus), STAT3 (9D8) (ThermoFisher Scientific), pSTAT3 (Y705) (Thermo Fisher Scientific), STAT1 (BD Transduction Laboratories), pSTAT1 (Y701) (Upstate Biotechnology), GAPDH and actin (Sigma-Aldrich). Membranes were developed with either Alexa Fluor® 660 anti-mouse IgG or Alexa Fluor® 680 anti-rabbit IgG antibodies (Thermo Fisher Scientific) and imaged using a LI-COR Odyssey Imager.

[3] = biological target: T3, PAC2-K681A (Mus musculus, UniProt Q9ES52, K681A); experiment: Biolayer interferometry, PAC2-K681A; assay type: binding; conditions: 20 μM analyte; K681A vs wild-type PAC2
T3 construct: PAC1 and PAC2 consists of phosphatase and C2 domain (residues aa 402-861 and aa 402-857 respectively); made in house; host or cells: E. coli BL21 co-transformed with pBirAcm
T3 sequence (Q9ES52 402-857 K681A): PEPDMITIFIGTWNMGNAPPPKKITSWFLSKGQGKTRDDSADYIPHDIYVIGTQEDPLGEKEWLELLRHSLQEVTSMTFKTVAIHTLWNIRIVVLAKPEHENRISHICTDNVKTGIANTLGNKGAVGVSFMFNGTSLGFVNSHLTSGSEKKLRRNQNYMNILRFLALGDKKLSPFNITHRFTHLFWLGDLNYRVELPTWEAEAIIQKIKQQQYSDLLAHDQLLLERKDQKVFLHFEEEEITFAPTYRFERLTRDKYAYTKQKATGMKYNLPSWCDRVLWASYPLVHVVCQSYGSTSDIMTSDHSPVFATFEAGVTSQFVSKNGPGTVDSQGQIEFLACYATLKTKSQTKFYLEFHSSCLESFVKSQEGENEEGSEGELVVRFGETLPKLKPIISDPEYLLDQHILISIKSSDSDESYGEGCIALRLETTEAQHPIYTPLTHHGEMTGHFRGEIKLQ
Protocol: Expression of PAC2-Avi tag for Biolayer interferometry. A sequence corresponding to Avi-tag ([…]) was added to the c-terminal end of the PAC2 in LIC-HMT-PAC2 expressing vector via standard restriction digestion and ligation. The LIC-HMT-PAC2-Avi expressing vector was then co-transformed into E. coli BL21 cells with pBirAcm expression vector in 1:1 molar ratio. Overnight culture was inoculated with a 250-fold dilution to start the actual culture. The cells were grown at 37° C. in LB medium (supplemented with 50 μg/mL of kanamycin and 10 μg/mL of chloramphenicol) with shaking speed of 225 rpm. When OD600 reached about 0.6, 5 mM of biotin in bicine buffer pH 8.3 was added to the culture to have final concentration of 125 μM of biotin. The culture was then cooled down to room temperature before the addition of 0.4 mM isopropyl-B-D-1-thiogalactopyranoside (IPTG) to induce the expression of the recombinant protein with Avi-tag. The rest of the method is identical as written in “Expression of PAC2 for crystallography”.
Biolayer interferometry. […] The association was measured for 600 s at an analyte concentration of 20 μM followed by dissociation for 300 s in the same buffer as the baseline. The raw data was analyzed using the Octet Red Data Analysis software (ver. 8.2). […]

T1 sequence (P42227 whole entry partner, one chain of several): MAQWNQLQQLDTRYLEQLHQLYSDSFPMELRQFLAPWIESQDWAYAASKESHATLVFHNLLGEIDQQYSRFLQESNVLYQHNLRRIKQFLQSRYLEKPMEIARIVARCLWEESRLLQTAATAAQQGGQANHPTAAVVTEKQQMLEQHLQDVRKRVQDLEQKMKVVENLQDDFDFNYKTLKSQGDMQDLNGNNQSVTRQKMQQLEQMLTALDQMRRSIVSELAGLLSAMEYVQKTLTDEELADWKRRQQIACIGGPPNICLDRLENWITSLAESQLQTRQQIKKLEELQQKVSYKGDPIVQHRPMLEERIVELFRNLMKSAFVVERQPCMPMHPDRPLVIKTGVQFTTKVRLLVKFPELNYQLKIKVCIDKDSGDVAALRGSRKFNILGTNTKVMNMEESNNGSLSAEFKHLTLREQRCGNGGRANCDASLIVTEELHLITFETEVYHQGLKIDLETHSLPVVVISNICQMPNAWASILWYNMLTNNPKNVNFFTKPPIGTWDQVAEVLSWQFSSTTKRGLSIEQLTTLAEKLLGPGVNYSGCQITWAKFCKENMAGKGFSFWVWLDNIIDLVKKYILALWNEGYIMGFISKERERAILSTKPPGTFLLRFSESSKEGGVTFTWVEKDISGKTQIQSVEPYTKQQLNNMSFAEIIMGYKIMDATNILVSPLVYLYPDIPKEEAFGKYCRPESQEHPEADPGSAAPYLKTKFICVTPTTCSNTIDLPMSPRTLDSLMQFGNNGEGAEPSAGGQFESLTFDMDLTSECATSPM

Substance	Clover-mRuby2 FRET signal [1]	association (co-precipitation) of SHIP1 and STAT3 [2]	binding to PAC2 with K681A substitution (BLI) [3]
IL6: pro-inflammatory cytokine IL6	not	failed to induce STAT3 association with SHIP1	
PI(3,4)P2 [reference compound]			impairs
